Holding throughout (details): protein: recombinant; tags: C-terminal His6 (pET21a); chain copies: 2; label: Cy3 (5') on strand 1; blunt
One data set deals with T1, MipZ D42A (Caulobacter crescentus, UniProt Q9A6C9 1-278, D42A).
T1 sequence: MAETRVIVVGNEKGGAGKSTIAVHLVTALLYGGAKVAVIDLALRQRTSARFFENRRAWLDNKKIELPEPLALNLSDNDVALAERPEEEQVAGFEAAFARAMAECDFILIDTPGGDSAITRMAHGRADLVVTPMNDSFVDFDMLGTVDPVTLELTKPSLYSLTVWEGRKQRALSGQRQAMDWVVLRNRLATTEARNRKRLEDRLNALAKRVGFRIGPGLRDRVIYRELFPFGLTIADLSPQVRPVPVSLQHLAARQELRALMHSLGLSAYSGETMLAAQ
The experiment in a line: MST; EMSA: 10 mM HEPES/NaOH pH 7.2, 150 mM NaCl, 10 mM MgCl2, 0.05% Tween 20, 0.46 mM ATPgS, room temp; BLI: 50 mM HEPES/NaOH pH 7.2, 50 mM NaCl, 5 mM MgCl2, 0.1 mM. For orientation: In EMSA bound probe runs differently from free probe, usually more slowly.

Another data set has as its target T2, MipZ WT (Caulobacter crescentus, UniProt Q9A6C9 1-278).
T2 sequence: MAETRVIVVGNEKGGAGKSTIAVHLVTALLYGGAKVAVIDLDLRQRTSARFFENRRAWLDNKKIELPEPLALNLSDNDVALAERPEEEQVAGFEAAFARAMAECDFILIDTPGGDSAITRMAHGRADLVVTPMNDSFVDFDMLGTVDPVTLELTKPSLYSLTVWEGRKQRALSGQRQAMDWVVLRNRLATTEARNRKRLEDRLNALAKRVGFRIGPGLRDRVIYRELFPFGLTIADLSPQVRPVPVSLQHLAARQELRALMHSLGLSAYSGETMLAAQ
Described as above.

In the next data set the target is T3, MipZ L248A (Caulobacter crescentus, UniProt Q9A6C9 1-278, L248A).
T3 sequence: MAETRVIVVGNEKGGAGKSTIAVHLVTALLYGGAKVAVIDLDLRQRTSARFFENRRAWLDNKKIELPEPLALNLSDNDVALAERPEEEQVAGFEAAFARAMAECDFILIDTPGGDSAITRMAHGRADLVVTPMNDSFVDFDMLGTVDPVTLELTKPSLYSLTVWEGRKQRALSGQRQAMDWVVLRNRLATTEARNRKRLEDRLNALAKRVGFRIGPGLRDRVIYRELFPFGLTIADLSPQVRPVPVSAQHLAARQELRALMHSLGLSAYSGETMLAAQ
The data set is described as above.

The next data set addresses T4, MipZ R194A (Caulobacter crescentus, UniProt Q9A6C9 1-278, R194A).
T4 sequence: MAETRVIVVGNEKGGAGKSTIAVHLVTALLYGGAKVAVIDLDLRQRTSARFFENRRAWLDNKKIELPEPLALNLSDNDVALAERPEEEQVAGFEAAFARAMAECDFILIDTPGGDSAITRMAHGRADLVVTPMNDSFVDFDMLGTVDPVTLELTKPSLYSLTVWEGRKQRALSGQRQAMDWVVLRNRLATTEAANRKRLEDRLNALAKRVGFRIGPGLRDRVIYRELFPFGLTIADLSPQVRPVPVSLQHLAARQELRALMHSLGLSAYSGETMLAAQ
The experiment in a line: MST; hardly any binding; EMSA: 10 mM HEPES/NaOH pH 7.2, 150 mM NaCl, 10 mM MgCl2, 0.05% Tween 20, 0.46 mM ATPgS, room temp; BLI: 50 mM HEPES/NaOH pH 7.2, 50 mM NaCl, 5 mM MgCl2, 0.1 mM.

Another data set concerns the target T5, MipZ R221A (Caulobacter crescentus, UniProt Q9A6C9 1-278, R221A).
T5 sequence: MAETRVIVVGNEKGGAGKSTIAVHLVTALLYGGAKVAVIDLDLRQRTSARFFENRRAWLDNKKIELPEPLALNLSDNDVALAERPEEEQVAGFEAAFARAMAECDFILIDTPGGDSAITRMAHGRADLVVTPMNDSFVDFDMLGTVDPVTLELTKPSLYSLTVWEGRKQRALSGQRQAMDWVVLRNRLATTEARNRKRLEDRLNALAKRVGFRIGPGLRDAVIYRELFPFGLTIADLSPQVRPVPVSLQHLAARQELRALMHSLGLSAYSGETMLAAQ
The data set is described as above.

A further data set deals with T6, MipZ R198A (Caulobacter crescentus, UniProt Q9A6C9 1-278, R198A).
T6 sequence: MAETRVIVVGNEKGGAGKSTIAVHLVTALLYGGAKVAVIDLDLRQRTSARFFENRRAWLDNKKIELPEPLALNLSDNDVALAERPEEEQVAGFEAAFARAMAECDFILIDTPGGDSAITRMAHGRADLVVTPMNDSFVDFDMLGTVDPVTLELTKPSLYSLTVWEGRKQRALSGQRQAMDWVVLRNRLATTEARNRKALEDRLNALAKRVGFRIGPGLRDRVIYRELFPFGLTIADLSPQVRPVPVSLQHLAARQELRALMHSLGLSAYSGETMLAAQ
The data set is described as above.

The source of these data is publication PMC7229837, “Molecular architecture of the DNA-binding sites of the P-loop ATPases MipZ and ParA from Caulobacter crescentus”.

As usually defined, the Kd is a measure of binding affinity in units of concentration.

B1: rand-Cy3/rand-rev 26 bp (dsDNA)
DNA 1: GAGGCAGACTAGATCTTCTAGTTCGG
DNA 2: CCGAACTAGAAGATCTAGTCTGCCTC
Take B1: the dissociation constant (Kd) with MipZ D42A, with MipZ WT and with MipZ L248A was < 10 µM each time. Further, the binding result in the data set with MipZ R194A, with MipZ R221A and with MipZ R198A was “no binding” in each case.
